# US20160237419
# T1: supercharged variant of human trypsinogen-1 (PRSS1 sc)
# T1 chain: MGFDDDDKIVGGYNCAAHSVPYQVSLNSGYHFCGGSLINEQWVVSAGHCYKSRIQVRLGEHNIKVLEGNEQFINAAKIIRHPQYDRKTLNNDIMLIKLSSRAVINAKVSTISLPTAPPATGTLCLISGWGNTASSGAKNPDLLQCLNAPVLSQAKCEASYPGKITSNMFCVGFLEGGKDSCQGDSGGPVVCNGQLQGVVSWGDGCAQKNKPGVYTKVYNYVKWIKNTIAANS
# Experiments:
# [1] = biological target: T1, supercharged variant of human …
# [2] = biological target: human wild type trypsinogen-1 (PRSS1 wt)
protein,measurement,setting,value
human enteropeptidase light chain sc C112S (hEPI-sc-C112S) (protein) IVGGSDAKEGAWPWVVGLYYDDRLLCGASLVSSDWLVSAAHCVYGRNLEPSKWTAILGLHMKSNLTSPQTVPRLIDEIVINPHYNRRRKDNDIAMMHLEFKVNYTDYIQPISLPEENQVFPPGRNCSIAGWGTVVYQGTTADILQEADVPLLSNERCQQQMPEYNITENMICAGYEEGGIDSCQGDSGGPLMCQENNRWFLAGVTSFGYECALPNRPGVYARVSRFTEWIQSFLH,activation of trypsinogen by enteropeptidase (trypsin activity on CBZ-GPR-pNA; fluorescence of FRET peptide 7),[1],"Both PRSS1 versions can be activated to similar levels, although PRSS1 sc shows a slightly slower activation profile"
same,activation of trypsinogen by enteropeptidase (trypsin activity on CBZ-GPR-pNA; fluorescence of FRET peptide 7),[2],Both PRSS1 versions can be activated to similar levels
